Assay results published in patent US20230272056A1 (Merck Sharp & Dohme, published 2023).

B1: 14BLM (antibody, human IgG1, kappa, L234A L235A, V domains shown)
VH: EVQLVQSGAEVKKPGASVKVSCKASGYTFTSYDTHWVRQAPGQGLEWMGRIDPQSGGIKYAQKFQGRATLTVDTSTSTAYMELSRLRSDDTAVYYCARWDYGGYFDVWGQGTLVTVSS
VL: DIQMTQSPSSLSASVGDRVTITCRASQDIYNYLNWYQQKPGKAVKLLIYYTSYLETGVPSRFSGSGSGTDYTLTISSLQPEDFATYFCQQGDTLPWTFGQGTKLEIKR
B2: 17BLM (antibody, human IgG1, kappa, L234A L235A, V domains shown)
VH: EVQLVQSGAEVKKPGASVKVSCKASGYTFTSYDMHWVRQAPGQGLEWMGRIDPQSGGIKYAQKFQGRATLTVDTSTSTAYMELSRLRSDDTAVYYCARWDYGGYFDVWGQGTLVTVSS
VL: DIQMTQSPSSLSASVGDRVTITCRASQDIYNYLNWYQQKPGKAVKLLIYYTSRLETGVPSRFSGSGSGTDYTLTISSLQPEDFATYFCQQGDELPWTFGQGTKLEIKR
B3: 06BLM (antibody, human IgG1, L234A L235A, V domains shown)
VH: EVQLVQSGAEVKKPGASVKVSCKASGYTFTSYDMHWVRQAPGQGLEWMGRIDPQSGGIRYAQKFQGRATLTVDTSTSTAYMELSRLRSDDTAVYYCARWDYGGQFDVWGQGTLVTVSS
VL: DIQMTQSPSSLSASVGDRVTITCRASQDIYNYLNWYQQKPGKAVKLLIYYTSILETGVPSRFSGSGSGTDYTLTISSLQPEDFATYFCQQGDTLPWTFGQGTKLEIK
notes: IgG1 L234A L235A D265S/kappa; also called 69BLH; 42BMD
B4: 20BLM (antibody, human IgG1, kappa, L234A L235A, V domains shown)
VH: EVQLVQSGAEVKKPGASVKVSCKASGYTFTSYDMHWVRQAPGQGLEWMGRIDPQSGGEKYAQKFQGRATLTVDTSTSTAYMELSRLRSDDTAVYYCARYDYGGYFDVWGQGTLVTVSS
VL: DIQMTQSPSSLSASVGDRVTITCRASQDIYNYLNWYQQKPGKAVKLLIYYTSRLETGVPSRFSGSGSGTDYTLTISSLQPEDFATYFCQQGDTLPWTFGQGTKLEIKR
B5: 55BJN (Fab, V domains shown)
VH: EVQLVQSGAEVKKPGASVKVSCKASGYTFTSYDIHWVRQAPGQGLEWMGRIDPQSGGIKYAQKFQGRATLTVDTSTSTAYMELSRLRSDDTAVYYCARWDYGGYFDVWGQGTLVTVSS
VL: DIQMTQSPSSLSASVGDRVTITCRASQDITNYLNWYQQKPGKAVKLLIYYTSRLHSGVPSRFSGSGSGTDYTLTISSLQPEDFATYFCQQGDTLPWTFGQGTKLEIKR
notes: also called VH W33D M34I / VL (55BJN)
B6: 56BJN (Fab, V domains shown)
VH: EVQLVQSGAEVKKPGASVKVSCKASGYTFTSYDIHWVRQAPGQGLEWMGRIDPYSGGIKYAQKFQGRATLTVDTSTSTAYMELSRLRSDDTAVYYCARWDYGGYFDVWGQGTLVTVSS
VL: DIQMTQSPSSLSASVGDRVTITCRASQDITNYLNWYQQKPGKAVKLLIYYTSRLHSGVPSRFSGSGSGTDYTLTISSLQPEDFATYFCQQGDTLPWTFGQGTKLEIKR
notes: also called VH W33D M34I Q54Y / VL (56BJN)
B7: 57BJN (Fab, V domains shown)
VH: EVQLVQSGAEVKKPGASVKVSCKASGYTFTSYDMHWVRQAPGQGLEWMGRIDPQSGGIKYAQKFQGRATLTVDTSTSTAYMELSRLRSDDTAVYYCARWDYGGYFDVWGQGTLVTVSS
VL: DIQMTQSPSSLSASVGDRVTITCRASQDITNYLNWYQQKPGKAVKLLIYYTSRLHSGVPSRFSGSGSGTDYTLTISSLQPEDFATYFCQQGDTLPWTFGQGTKLEIKR
notes: also called VH W33D / VL (57BJN)
B8: 58BJN (Fab, V domains shown)
VH: EVQLVQSGAEVKKPGASVKVSCKASGYTFTSYDMHWVRQAPGQGLEWMGRIDPQSGGIKYAQKFQGRATLTVDTSTSTAYMELSRLRSDDTAVYYCARYDHGGYFDVWGQGTLVTVSS
VL: DIQMTQSPSSLSASVGDRVTITCRASQDIYNYLNWYQQKPGKAVKLLIYYTSRLHSGVPSRFSGSGSGTDYTLTISSLQPEDFATYFCQQGDTLPWTFGQGTKLEIKR
notes: also called VH W33D W99Y Y101H / VL T30Y (58BJN)
B9: 59BJN (Fab, V domains shown)
VH: EVQLVQSGAEVKKPGASVKVSCKASGYTFTSYQVHWVRQAPGQGLEWMGRIDPQSGGIKYAQKFQGRATLTVDTSTSTAYMELSRLRSDDTAVYYCARWDYGGYFDVWGQGTLVTVSS
VL: DIQMTQSPSSLSASVGDRVTITCRASQDIYNYLNWYQQKPGKAVKLLIYYTSRLHSGVPSRFSGSGSGTDYTLTISSLQPEDFATYFCQQGDTLPWTFGQGTKLEIKR
notes: also called VH W33Q M34V / VL T30Y (59BJN)
B10: 60BJN (Fab, V domains shown)
VH: EVQLVQSGAEVKKPGASVKVSCKASGYTFTSYDMHWVRQAPGQGLEWMGRIDPQSGGEKYAQKFQGRATLTVDTSTSTAYMELSRLRSDDTAVYYCARYDYGGYFDVWGQGTLVTVSS
VL: DIQMTQSPSSLSASVGDRVTITCRASQDIYNYLNWYQQKPGKAVKLLIYYTSRLHSGVPSRFSGSGSGTDYTLTISSLQPEDFATYFCQQGDTLPWTFGQGTKLEIKR
notes: also called VH W33D I58E W99Y / VL T30Y (60BJN)
B11: 61BJN (Fab, V domains shown)
VH: EVQLVQSGAEVKKPGASVKVSCKASGYTFTDYDMHWVRQAPGQGLEWMGRIDPQSGDHDYAQKFQGRATLTVDTSTSTAYMELSRLRSDDTAVYYCARYDHGGYFDVWGQGTLVTVSS
VL: DIQMTQSPSSLSASVGDRVTITCRASQDIYNYLNWYQQKPGKAVKLLIYYTSRLHSGVPSRFSGSGSGTDYTLTISSLQPEDFATYFCQQGDTLPWTFGQGTKLEIKR
notes: also called VH S31D W33D G57D I58H K59D W99Y Y101H / VL T30Y (61BJN)
B12: 62BJN (Fab, V domains shown)
VH: EVQLVQSGAEVKKPGASVKVSCKASGYTFTSYDMHWVRQAPGQGLEWMGRIDPYGGGIKYAQKFQGRATLTVDTSTSTAYMELSRLRSDDTAVYYCARYDHGGYFDVWGQGTLVTVSS
VL: DIQMTQSPSSLSASVGDRVTITCRASQDIYNYLNWYQQKPGKAVKLLIYYTSRLHSGVPSRFSGSGSGTDYTLTISSLQPEDFATYFCQQGDTLPWTFGQGTKLEIKR
notes: also called VH W33D Q54Y S55G W99Y Y101H / VL T30Y (62BJN)
B13: 63BJN (Fab, V domains shown)
VH: EVQLVQSGAEVKKPGASVKVSCKASGYTFTFYDIHWVRQAPGQGLEWMGRIDPQSGGIKYAQKFQGRATLTVDTSTSTAYMELSRLRSDDTAVYYCARWDYGGYFDVWGQGTLVTVSS
VL: DIQMTQSPSSLSASVGDRVTITCRASQDIYNYLNWYQQKPGKAVKLLIYYTSRLHSGVPSRFSGSGSGTDYTLTISSLQPEDFATYFCQQGDTLPWTFGQGTKLEIKR
notes: also called VH S31F W33D M34I / VL T30Y (63BJN)

What was measured:
[1] = target: human LAP-TGFβ1 expressed on P3U1 cells (human, UniProt P01137 30-390); assay: cell-based or functional assay
[2] = target: T1, human LAP-TGFB1 Fc fusion (human); assay: SPR pH 6.0, antigen captured on Fab 54BLH
T1 construct: also called human LAP-TGFβ1-Fc; human LAP-TGFβ-Fc isoform 1
From the text: A Series S C1 sensor chip (Cytiva, catalog BR100535) was immobilized with low densities of high affinity Fab 54BLH on a Biacore T200 instrument with 1×HBS-EP+(Teknova, catalog H8022). This surface served as a monovalent capture surface for a low-density layer of heterodimer human LAP-TGFβ1 complex leaving the second binding site exposed for monovalent kinetic binding analysis with both mAbs and Fabs. Immobilized flow cell 1 served as the reference and flow cells 2, 3 and 4 were used to evaluate the binding interaction between human LAP-TGFβ1 and yeast display mutant mAbs and Fabs.
Approximately 15-25 RU of human LAP-TGFβ1-Fc was captured to the Fab capture surface followed by injection of 1:3 serially diluted Fabs and mAbs from 6 nM to 0.07 nM (Fabs: 54BLH, 55BLH, 60BLH, 63BLH, 64BLH-mAbs: 69BLH, 70BLH) and 1:3 serially diluted Fab and mAbs from 60 nM to 0.74 nM (Fabs: 59BLH, 66BLH, 67BLH—mAbs: 74BLH, 75BLH, 78BLH, 79BLH, 81BLH, 82BLH) including 0 nM. The binding data was double referenced by subtraction of signal from a reference flow cell and the 0 nM injections for evaluation of Fabs and mAbs respectively. Binding rate constants were calculated/determined by fitting the data with a 1:1 binding model (Cytiva Biacore T200 Evaluation software 3.0).

[3] = target: T1, human LAP-TGFB1 Fc fusion; assay: SPR, antigen-Fc captured, Fab analyte
From the text: (§1) This Example describes the isoform specificity of the yeast display mutants to bind to human LAP-TGFβ isoforms 1, 2, and 3 using surface plasmon resonance. A Series S CM4 sensor chip (GE Healthcare, catalog BR100534) was immobilized with an anti-human Fc capture antibody following the kit protocol (GE Healthcare, catalog BR100839) on a Biacore T200 instrument with 1× HBS-EP+ (Teknova, catalog H8022). […] Binding specificity experiments between human LAP-TGFβ isoforms 2 and 3 and yeast display mutants were performed in 1× HBS-EP+ with 0.1 mg/mL BSA at 25° C. Approximately 20-40 RU amounts of human LAP-TGFβ2 and 3 were captured to the anti-human Fc surface followed by injection of 1000 nM Fab including a negative control 0 nM Fab. The binding data were double referenced by subtraction of signal from a reference (capture surface only) flow cell and the negative control 0 nM Fab injection. Binding rate constants were determined by fitting the data with a 1:1 binding model (GE Healthcare Biacore T200 Evaluation software 3.0).

[4] = target: T2, human LAP-TGFB3 Fc fusion (human); assay: SPR
T2 construct: also called human LAP-TGFβ3; LAP-TGFβ isoform 3
From the text: as §1

[5] = target: T3, human LAP-TGFB2 Fc fusion (human); assay: SPR
T3 construct: also called human LAP-TGFβ2; LAP-TGFβ isoform 2
From the text: as §1

Chain of human LAP-TGFβ1 expressed on P3U1 cells (P01137 30-390): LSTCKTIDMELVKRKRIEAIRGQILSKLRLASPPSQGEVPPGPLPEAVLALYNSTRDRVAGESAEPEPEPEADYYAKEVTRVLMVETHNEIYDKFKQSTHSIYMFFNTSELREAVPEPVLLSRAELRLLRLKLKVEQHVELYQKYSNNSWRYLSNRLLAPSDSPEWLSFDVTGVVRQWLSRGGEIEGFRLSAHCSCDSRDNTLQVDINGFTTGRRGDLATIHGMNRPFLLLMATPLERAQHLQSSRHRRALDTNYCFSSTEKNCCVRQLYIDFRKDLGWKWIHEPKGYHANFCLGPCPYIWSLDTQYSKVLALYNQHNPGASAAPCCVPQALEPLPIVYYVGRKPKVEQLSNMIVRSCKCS
T2 sequence (chain, as listed by the source limits assumed): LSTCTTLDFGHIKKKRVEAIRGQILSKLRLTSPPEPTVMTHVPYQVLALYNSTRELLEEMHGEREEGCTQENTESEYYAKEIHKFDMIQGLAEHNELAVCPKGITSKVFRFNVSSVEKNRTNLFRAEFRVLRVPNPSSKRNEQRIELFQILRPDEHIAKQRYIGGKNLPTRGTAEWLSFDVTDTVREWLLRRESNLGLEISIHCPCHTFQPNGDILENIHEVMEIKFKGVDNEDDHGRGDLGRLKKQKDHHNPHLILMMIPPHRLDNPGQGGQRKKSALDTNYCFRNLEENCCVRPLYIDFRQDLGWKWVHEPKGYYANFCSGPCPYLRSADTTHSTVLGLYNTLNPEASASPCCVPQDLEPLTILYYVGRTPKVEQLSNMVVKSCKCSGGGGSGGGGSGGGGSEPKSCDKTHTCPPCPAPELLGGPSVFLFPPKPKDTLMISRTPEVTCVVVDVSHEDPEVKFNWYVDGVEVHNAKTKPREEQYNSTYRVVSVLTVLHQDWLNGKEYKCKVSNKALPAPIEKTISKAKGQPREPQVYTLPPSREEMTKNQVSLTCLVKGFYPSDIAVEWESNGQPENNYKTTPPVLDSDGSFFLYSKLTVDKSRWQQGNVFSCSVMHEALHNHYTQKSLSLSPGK
T1 sequence (chain, as listed by the source limits assumed): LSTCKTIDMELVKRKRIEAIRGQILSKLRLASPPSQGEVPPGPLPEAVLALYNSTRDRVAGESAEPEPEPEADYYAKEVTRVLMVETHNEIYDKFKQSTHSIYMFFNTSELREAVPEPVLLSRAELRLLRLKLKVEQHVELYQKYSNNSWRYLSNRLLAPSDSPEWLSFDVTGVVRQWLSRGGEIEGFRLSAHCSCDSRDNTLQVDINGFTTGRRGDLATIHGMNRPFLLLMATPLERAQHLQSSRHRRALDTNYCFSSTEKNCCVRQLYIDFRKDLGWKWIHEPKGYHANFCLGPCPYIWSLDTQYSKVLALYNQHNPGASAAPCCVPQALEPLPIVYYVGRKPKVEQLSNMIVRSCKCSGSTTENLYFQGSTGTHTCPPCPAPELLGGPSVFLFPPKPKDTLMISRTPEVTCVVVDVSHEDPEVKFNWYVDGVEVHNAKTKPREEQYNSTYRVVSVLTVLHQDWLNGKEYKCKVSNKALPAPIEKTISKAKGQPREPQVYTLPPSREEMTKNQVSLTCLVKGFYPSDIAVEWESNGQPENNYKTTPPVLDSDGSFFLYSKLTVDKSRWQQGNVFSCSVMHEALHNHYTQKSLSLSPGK
T3 sequence (chain, as listed by the source limits assumed): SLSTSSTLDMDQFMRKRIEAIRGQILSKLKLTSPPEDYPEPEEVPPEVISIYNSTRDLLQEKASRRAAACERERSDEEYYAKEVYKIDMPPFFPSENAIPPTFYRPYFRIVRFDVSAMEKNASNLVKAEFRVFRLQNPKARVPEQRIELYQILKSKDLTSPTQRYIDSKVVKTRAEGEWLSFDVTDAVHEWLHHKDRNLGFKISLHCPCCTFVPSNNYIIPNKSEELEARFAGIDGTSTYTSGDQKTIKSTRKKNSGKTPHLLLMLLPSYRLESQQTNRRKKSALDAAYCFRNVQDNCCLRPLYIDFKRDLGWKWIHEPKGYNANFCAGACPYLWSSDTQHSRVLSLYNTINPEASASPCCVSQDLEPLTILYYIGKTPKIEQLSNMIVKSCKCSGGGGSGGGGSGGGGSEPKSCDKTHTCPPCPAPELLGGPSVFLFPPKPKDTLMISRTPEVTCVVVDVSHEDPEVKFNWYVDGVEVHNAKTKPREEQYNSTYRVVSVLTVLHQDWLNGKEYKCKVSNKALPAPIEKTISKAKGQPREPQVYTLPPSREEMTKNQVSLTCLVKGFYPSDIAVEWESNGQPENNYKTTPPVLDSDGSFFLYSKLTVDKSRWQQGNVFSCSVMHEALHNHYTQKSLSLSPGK

| Binder | Average EC50 [1] [mg/L] | ELISA assay 2 EC50 [1] [mg/L] | ELISA assay #1 EC50 [1] [mg/L] | Fab/mAb KD Ratio [2] | Kd [2] [nM] | koff [2] [s⁻¹] | kon [2] [M⁻¹ s⁻¹] | Fold improvement in KD [3] [fold] | binding result [4] | binding result [5] | Kd [3] [nM] | koff [3] [s⁻¹] | kon [3] [M⁻¹ s⁻¹] |
| --- | --- | --- | --- | --- | --- | --- | --- | --- | --- | --- | --- | --- | --- |
| B1 | 0.158 | 0.146 | 0.169 | – | – | – | – | – | – | – | – | – | – |
| B2 | 0.063 | 0.089 | 0.0357 | – | – | – | – | – | – | – | – | – | – |
| B3 | 0.125 | 0.137 | 0.113 | 1.9 | 0.0114 | 6.18e-05 | 5.43e+06 | – | – | – | – | – | – |
| B4 | 0.033 | 0.008 | 0.0574 | – | – | – | – | – | – | – | – | – | – |
| B5 | – | – | – | – | – | – | – | 3 | no binding (tested: 1000 nM Fab) | no binding (tested: 1000 nM Fab) | – | – | – |
| B6 | – | – | – | – | – | – | – | 1 | no binding (tested: 1000 nM Fab) | no binding (tested: 1000 nM Fab) | – | – | – |
| B7 | – | – | – | – | – | – | – | 6 | no binding (tested: 1000 nM Fab) | no binding (tested: 1000 nM Fab) | 13.4 | 0.0178 | 1.33e+06 |
| B8 | – | – | – | – | – | – | – | 13 | no binding (tested: 1000 nM Fab) | no binding (tested: 1000 nM Fab) | 6.42 | 0.0151 | 2.35e+06 |
| B9 | – | – | – | – | – | – | – | 7 | no binding (tested: 1000 nM Fab) | no binding (tested: 1000 nM Fab) | 11.7 | 0.0263 | 2.24e+06 |
| B10 | – | – | – | – | – | – | – | 31 | no binding (tested: 1000 nM Fab) | no binding (tested: 1000 nM Fab) | 2.57 | 0.00653 | 2.54e+06 |
| B11 | – | – | – | – | – | – | – | 1 | no binding (tested: 1000 nM Fab) | no binding (tested: 1000 nM Fab) | 175 | 0.279 | 1.59e+06 |
| B12 | – | – | – | – | – | – | – | 5 | no binding (tested: 1000 nM Fab) | no binding (tested: 1000 nM Fab) | 15.6 | 0.032 | 2.05e+06 |
| B13 | – | – | – | – | – | – | – | 25 | no binding (tested: 1000 nM Fab) | no binding (tested: 1000 nM Fab) | 3.23 | 0.0053 | 1.64e+06 |
